For this data set, the target named is T1, TtAgo (Thermus thermophilus Argonaute) (Thermus thermophilus, UniProt Q746M7 1-685).
T1 sequence: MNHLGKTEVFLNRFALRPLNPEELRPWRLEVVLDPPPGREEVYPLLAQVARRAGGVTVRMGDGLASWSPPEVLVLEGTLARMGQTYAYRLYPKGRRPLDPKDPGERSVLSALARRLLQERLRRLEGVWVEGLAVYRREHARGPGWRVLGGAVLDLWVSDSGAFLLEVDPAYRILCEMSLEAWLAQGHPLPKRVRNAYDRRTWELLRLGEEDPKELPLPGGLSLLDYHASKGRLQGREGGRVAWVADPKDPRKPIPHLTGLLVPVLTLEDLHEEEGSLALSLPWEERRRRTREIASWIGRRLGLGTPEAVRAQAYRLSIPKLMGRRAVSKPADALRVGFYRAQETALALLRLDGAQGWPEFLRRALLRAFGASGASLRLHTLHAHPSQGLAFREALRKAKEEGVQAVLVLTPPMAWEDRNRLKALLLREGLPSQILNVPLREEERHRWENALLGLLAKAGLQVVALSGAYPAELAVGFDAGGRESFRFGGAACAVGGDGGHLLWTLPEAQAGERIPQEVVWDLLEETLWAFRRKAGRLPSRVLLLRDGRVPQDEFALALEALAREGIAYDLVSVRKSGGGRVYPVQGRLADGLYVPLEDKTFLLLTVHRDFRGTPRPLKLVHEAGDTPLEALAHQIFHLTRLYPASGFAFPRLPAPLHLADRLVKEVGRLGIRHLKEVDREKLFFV
The data set is described as follows: EMSA; ternary complex; higher than with C-gDNA; BLI in 1x reaction buffer (composition, pH and temperature not given in the material); EMSA conditions not given. Conditions: protein: recombinant; tags: Ni-column purified; dialyzed with TEV protease (tag not described); guide 1-18 pairs with target 12-29; target overhangs 11 nt 5', 1 nt 3'. On the technique in general: In EMSA bound probe runs differently from free probe, usually more slowly.

B1: F1-gDNA + target (mixed)
DNA 1: CATGCATCGATCAGCTAC
DNA 2: CTGCAGTCGTCGTAGCTGATCGATGCATGC
modifications: 2'-F on C18 of guide
Take B1: the binding result is on record as “binds”.

Source of the values: paper PMC11267260, “Atom‐Modified gDNA Enhances Cleavage Activity of TtAgo Enabling Ultra‐Sensitive Nucleic Acid Testing”.
